Reference: the supplement of paper PMC11908140

B1: library; numbered along this chain (parent)
chain: MRKPRAAVGSGHRKQAASQEGRQKHAKNNSQAKPSACDGLARQPEEVVLQASVSSYHLFRDVAEVTAFRGSLLSWYDQEKRDLPWRRRAEDEMDLDRRAYAVWVSEVMLQQTQVATVINYYTGWMQKWPTLQDLASASLEEVNQLWAGLGYYSRGRRLQEGARKVVEELGGHMPRTAETLQQLLPGVGRYTAGAIASIAFGQATGVVDGNVARVLCRVRAIGADPSSTLVSQQLWGLAQQLVDPARPGDFNQAAMELGATVCTPQRPLCSQCPVESLCRARQRVEQEQLLASGSLSGSPDVEECAPNTGQCHLCLPPSEPWDQTLGVVNFPRKASRKPPREESSATCVLEQPGALGAQILLVQRPNSGLLAGLWEFPSVTWEPSEQLQRKALLQELQRWAGPLPATHLRHLGEVVHTFSHIKLTYQVYGLALEGQTPVTTVPPGARWLTQEEFHTAAVSTAMKKVFRVYQGQQPGTCMGSKRSQVSSPCSRKKPRMGQQVLDNFFRSHISTDAHSLNSAAQ

Variants of: B1
Experiment: 8OG:A repair function score (normalized; synonymous = 0, nonsense = -1) (normalized log-likelihood score); higher = more repair activity (WT-like)
Settings: with 8OG:A DNA repair reporter (GFP) in HEK-293 MUTYH KO cells
How it was run: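 Lentiviral MUTYH cDNA NNN codon-scan libraries in HEK-293 MUTYH knockout cells (10 pg/ml doxycycline) were co-transfected with an 8OG:A GFP repair reporter plus mCherry. At 72 h, viable mCherry+ cells were sorted into GFP+ (repair) and GFP− bins, three replicates per tile, then tile amplicons were sequenced. Per-tile Rosace fitness scores became a normalized repair function score anchored on synonymous and nonsense distributions. Synonymous medians were set to 0 and nonsense to -1; variants under 300 counts per million at the start were removed.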

| Variant | 8OG:A repair function score |
| --- | --- |
| V53Y | -0.0142 |
| L145M | 0.00629 |
| D133S | 0.0612 |
| A41S | -0.048 |
| Q310K | -0.0227 |
| T179Q | -0.0228 |
| Q397S | -0.159 |
| A431M | -0.23 |
| A177V | -0.207 |
| V142A | -0.377 |
| M478C | 0.0262 |
| L95N | -8.88e-05 |
| Q252W | -1.04 |
| V242N | -0.576 |
| A194S | -0.169 |
| M255R | -1.03 |
| P494R | 0.00547 |
| V104M | -0.192 |
| T116K | 0.113 |
| G186M | -0.885 |
| G170N | 0.0595 |
| V261I | -0.0723 |
| P174C | -0.583 |
| K127T | -0.072 |
| P404H | 0.138 |
| L516Y | 0.0181 |

| Variant | 8OG:A repair function score |
| --- | --- |
| A354P | 0.0108 |
| L403N | -0.0773 |
| G258P | -1.06 |
| V230A | -0.0122 |
| L369M | 0.201 |
| G222T | -0.547 |
| A519S | 0.00395 |
| L40A | 0.139 |
| S490F | -0.0204 |
| L430P | -0.888 |
| F376N | -1.17 |
| P331W | -0.233 |
| T439V | 0.0472 |
| E141C | -0.219 |
| V327T | -0.119 |
| G309L | -0.0772 |
| S138L | -0.279 |
| A305S | -0.019 |
| A99V | -0.708 |
| A203G | -0.165 |
| G471C | -0.0198 |
| L183T | -0.0372 |
| V218K | -1 |
| K3G | 0.00287 |
| N251S | -0.903 |
| V114Q | -0.313 |

| Variant | 8OG:A repair function score |
| --- | --- |
| Q111G | -0.557 |
| P383V | -0.163 |
| Q450A | -0.0533 |
| P306K | -0.0963 |
| A245E | 0.644 |
| P84W | -1.29 |
| Q182C | -0.0792 |
| E382V | 0.0267 |
| A101C | -0.00146 |
| Y100H | -1.01 |
| P488Y | -0.0629 |
| G186K | -0.9 |
| L432C | 0.0294 |
| I509E | 0.0145 |
| Q159T | -0.0681 |
| V458A | -0.667 |
| V328E | -0.157 |
| G471M | 0.011 |
| V242R | -0.886 |
| R491S | 0.00574 |
| Q397H | -0.717 |
| G155S | -0.0824 |
| L184D | -1.16 |
| L229H | 0.287 |
| D77Q | -0.0294 |
| Y425S | -0.31 |

| Variant | 8OG:A repair function score |
| --- | --- |
| W399G | -0.541 |
| V468T | -0.0398 |
| F376A | -0.775 |
| L501K | -0.0877 |
| R87Y | -0.052 |
| V214T | -0.495 |
| G171Q | -0.338 |
| S480G | 0.00341 |
| T476K | 0.024 |
| L392C | -0.389 |
| V65M | -0.139 |
| S459Q | -0.749 |
| L95P | -0.00578 |
| A99C | -0.408 |
| R157L | -0.141 |
| Y190N | -0.443 |
| A391E | -0.106 |
| G471K | 0.0191 |
| R398F | 0.214 |
| T116Q | -0.21 |
| S294T | 0.00194 |
| W381L | 0.07 |
| L131K | -0.394 |
| H407S | -0.109 |
| Y428D | -1.09 |
| G479N | -0.00734 |

| Variant | 8OG:A repair function score |
| --- | --- |
| Q363H | 0.0355 |
| Q113H | -0.405 |
| A280K | -0.812 |
| V379A | 0.00194 |
| L134D | -1.82 |
| L234A | -0.833 |
| R398L | -0.263 |
| S486I | -0.0359 |
| L392D | -0.872 |
| R213M | -1.04 |
| T439M | 0.106 |
| C269I | -1.26 |
| G309T | -0.00848 |
| A456D | -0.523 |
| D82I | -0.0384 |
| H172F | -0.0443 |
| M255S | -1.01 |
| C314D | -0.532 |
| S487L | -5.82e-05 |
| R88W | -0.0355 |
| Y121M | -0.933 |
| S335D | -0.0695 |
